{
  "source": "patent US20160219844A1",
  "about": "(published 2016)",
  "binders": {"B1": {"name": "GFP-specific T cell receptor (αGFP TCR) of SEQ ID NOs 2 and 4 (TCR, V domains shown)", "Valpha": "QQKVQQSPESLSVPEGGMASFNCTSSDRNFQYFWWYRQHSGEGPKALMSIFSDGDKKEGRFTAHLNKASLHVSLHIRDSQPSDSALYFCAASHDTNAYKVIFGKGTHLHVLP", "Vbeta": "DPKIIQKPKYLVAVTGSEKILICEQYLGHNAMYWYRQSAKKPLEFMFSYSYQKLMDNQTASSRFQPQSSKKNHLDLQITALKPDDSATYFCASSQGAGIYNSPLYFAAGTRLTVT"}},
  "target": "T1, green fluorescent protein (GFP) peptide on H-2Kd (mouse)",
  "T1 peptide": "HYLSTQSAL",
  "test": "multimer staining",
  "source_text": "FIG. 1 is a pair of graphs showing detection of GFP-specific CD8+ T cells in founder αGFP mice generated by somatic cell nuclear transfer (“SCNT”). Cells were collected from the lymph nodes of founder αGFP mice. The cells were stained for CD8 and an anti-H-2K^d-GFP₂₀₀₋₂₀₈ pentamer. Representative FACS is shown in all 14 founders. Note that these are founder mice and thus chimeric.",
  "data": [
    {"binder": "B1", "values": [
      {"measurement": "binding result", "value": "recognises"}
    ]}
  ]
}
